# Assay results from paper PMC8599813, “Investigating molecular mechanisms of 2A-stimulated ribosomal pausing and frameshifting in Theilovirus”.
# Substitutions are numbered along the chain they refer to. Numbers in names are those of the source.
# B1: TMEV 12 (structured_RNA)
# RNA: GGUGCGGUGCUAACUAAAUCCCUAGCACCCC
# B2: TMEV 6 (structured_RNA)
# RNA: CCACAAGGUGCGGUGCUAACUAAAUCCCUAGCACCCC
# B3: TMEV 8 (structured_RNA)
# RNA: ACAAGGUGCGGUGCUAACUAAAUCCCUAGCACCCC
# B4: TMEV 2 (structured_RNA)
# RNA: GCGGUGCUAACUAAAUCCCUAGCACCCCAGGCAGGAA
# B5: TMEV 9 (structured_RNA)
# RNA: CAAGGUGCGGUGCUAACUAAAUCCCUAGCACCCC
# B6: TMEV 9 G17C+C38G (structured_RNA)
# RNA: B5 RNA with G4C, C25G
# B7: TMEV 9 G17C (structured_RNA)
# RNA: B5 RNA with G4C
# B8: TMEV 1 (structured_RNA)
# RNA: CCACAAGGUGCGGUGCUAACUAAAUCCCUAGCACCCCAGGCAGGAA
# B9: TMEV 1 G17C+C38G (structured_RNA)
# RNA: B8 RNA with G7C, C28G
# B10: TMEV 3 (structured_RNA)
# RNA: GGGUUUUUCAGCCACAAGGUGCGGUGCUAACUAAAUCCCUAGCACCCC
# B11: TMEV 7 (structured_RNA)
# RNA: CACAAGGUGCGGUGCUAACUAAAUCCCUAGCACCCC
# B12: TMEV 4 (structured_RNA)
# RNA: GCGGUGCUAACUAAAUCCCUAGCACCCC
# Tests used:
# [1] = target: Theiler's murine encephalomyelitis virus (TMEV) 2A protein (Theiler's murine encephalomyelitis virus (TMEV)); experiment: SEC-MALS; Superdex 75 increase 10/300 GL, 20 mM Tris (HCl) pH 7.5, 1.0 M NaCl, 25°C; 100 µl injected at 3.1, 0.8 and 0.38 mg/ml (200, 51.5 and 24.5 µM); Figure 1B at 3.1 mg/ml; monomer and trimer peaks
# TMEV 2A [2] = target: T1, TMEV 2A (Theiler's murine encephalomyelitis …, UniProt P08545 923-1055); experiment: EMSA; EMSA: 10 mM Tris pH 7.4, ~140 mM NaCl, 2 mM Mg acetate, 1 mM DTT, 5% glycerol, tRNA, 50 nM RNA, 37 C 20 min; MST: buffer stated as 1x of 20 mM Tris pH 7.4/80 mM NaCl/4 mM Mg acetate/2 mM DTT (2x), ~140 mM NaCl final, 5 nM RNA, 25 C; ITC: 50 mM Tris pH 7.4, 400 mM NaCl, 25 C; conditions: protein: recombinant, tags: GST cleaved (3C protease), N-terminal GPLGS remnant, label: 5' Cy5
# T1 sequence: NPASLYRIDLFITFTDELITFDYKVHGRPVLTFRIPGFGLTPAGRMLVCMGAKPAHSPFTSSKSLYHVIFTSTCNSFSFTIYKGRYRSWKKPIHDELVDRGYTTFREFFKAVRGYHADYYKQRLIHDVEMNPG
# TMEV 2A [3] = target: T1, TMEV 2A; experiment: MST; ~140 mM NaCl; EMSA: 10 mM Tris pH 7.4, ~140 mM NaCl, 2 mM Mg acetate, 1 mM DTT, 5% glycerol, tRNA, 50 nM RNA, 37 C 20 min; MST: buffer stated as 1x of 20 mM Tris pH 7.4/80 mM NaCl/4 mM Mg acetate/2 mM DTT (2x), ~140 mM NaCl final, 5 nM RNA, 25 C; ITC: 50 mM Tris pH 7.4, 400 mM NaCl, 25 C; conditions: protein: recombinant, tags: GST cleaved (3C protease), N-terminal GPLGS remnant, label: 5' Cy5 (EMSA, MST); for Kd: stem-loop/pseudoknot-like
# TMEV 2A [4] = target: T1, TMEV 2A; experiment: ITC; 400 mM NaCl; ~1:1 stoichiometry; EMSA: 10 mM Tris pH 7.4, ~140 mM NaCl, 2 mM Mg acetate, 1 mM DTT, 5% glycerol, tRNA, 50 nM RNA, 37 C 20 min; MST: buffer stated as 1x of 20 mM Tris pH 7.4/80 mM NaCl/4 mM Mg acetate/2 mM DTT (2x), ~140 mM NaCl final, 5 nM RNA, 25 C; ITC: 50 mM Tris pH 7.4, 400 mM NaCl, 25 C; conditions: protein: recombinant; tags: GST cleaved (3C protease); N-terminal GPLGS remnant; label: 5' Cy5 (EMSA, MST); none (ITC, SEC-MALS); stem-loop/pseudoknot-like
# TMEV 2A [5] = target: T1, TMEV 2A; experiment: EMSA; ~140 mM NaCl, tRNA; EMSA: 10 mM Tris pH 7.4, ~140 mM NaCl, 2 mM Mg acetate, 1 mM DTT, 5% glycerol, tRNA, 50 nM RNA, 37 C 20 min; MST: buffer stated as 1x of 20 mM Tris pH 7.4/80 mM NaCl/4 mM Mg acetate/2 mM DTT (2x), ~140 mM NaCl final, 5 nM RNA, 25 C; ITC: 50 mM Tris pH 7.4, 400 mM NaCl, 25 C; conditions: protein: recombinant; tags: GST cleaved (3C protease); N-terminal GPLGS remnant; label: 5' Cy5 (EMSA, MST); hairpin, 7 bp stem
molecule,measurement,setting,value
Theiler's murine encephalomyelitis virus (TMEV) 2A protein (natural protein),stoichiometry N,[1],3
B1,binding result,TMEV 2A [2]; stem-loop,no binding
B2,Kd,"TMEV 2A [3]; none (ITC, SEC-MALS)",280 ± 40 nM
same,Kd,TMEV 2A [4],67 ± 7 nM
B3,binding result,TMEV 2A [2]; stem-loop/pseudoknot-like,binds
B4,binding result,TMEV 2A [3]; hairpin,no binding
B5,binding result,"TMEV 2A [2]; pseudoknot-like, G17-C38 pair",binds
B6,binding result,TMEV 2A [2]; compensatory pair 17-38,no binding
B7,binding result,TMEV 2A [2]; stem-loop,no binding
B8,Kd,TMEV 2A [3],484 ± 90 nM
B9,binding result,TMEV 2A [2]; compensatory pair 17-38,no binding
B10,Kd,TMEV 2A [3],495 ± 110 nM
B11,binding result,TMEV 2A [2]; stem-loop/pseudoknot-like,binds
B12,binding result,TMEV 2A [5],no binding
